In publication PMC6886524 (Journal of structural and functional genomics, 2015):

Target: Urease beta subunit (urea amidohydrolase) (UreB) of H. pylori (H. pylori, UniProt P69996 1-569)
Test: crystal structure

Chain of Urease beta subunit (urea amidohydrolase) (UreB) of H. pylori (P69996 whole entry): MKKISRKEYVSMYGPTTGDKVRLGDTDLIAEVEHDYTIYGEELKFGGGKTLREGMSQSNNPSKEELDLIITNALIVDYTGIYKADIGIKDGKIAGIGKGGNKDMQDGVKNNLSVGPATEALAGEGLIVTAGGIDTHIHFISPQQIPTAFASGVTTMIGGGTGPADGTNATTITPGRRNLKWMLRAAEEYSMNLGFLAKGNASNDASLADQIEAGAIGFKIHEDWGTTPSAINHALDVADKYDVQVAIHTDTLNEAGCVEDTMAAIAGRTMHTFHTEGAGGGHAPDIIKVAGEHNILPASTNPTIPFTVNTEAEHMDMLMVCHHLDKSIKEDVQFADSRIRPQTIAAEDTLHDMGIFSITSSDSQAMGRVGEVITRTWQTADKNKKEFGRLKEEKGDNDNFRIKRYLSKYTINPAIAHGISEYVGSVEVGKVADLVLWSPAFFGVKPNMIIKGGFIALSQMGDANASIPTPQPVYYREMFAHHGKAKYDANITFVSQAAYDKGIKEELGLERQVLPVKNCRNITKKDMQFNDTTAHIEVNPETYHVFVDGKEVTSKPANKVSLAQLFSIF

B1: Urease alpha subunit (UreA) (urea amidohydrolase) of H. pylori (natural protein)
chain: MKLTPKELDKLMLHYAGELAKKRKEKGIKLNYVEAVALISAHIMEEARAGKKTAAELMQEGRTLLKPDDVMDGVASMIHEVGIEAMFPDGTKLVTVHTPIEANGKLVPGELFLKNEDITINEGKKAVSVKVKNVGDRPVQIGSHFHFFEVNRCLDFDREKTFGKRLDIASGTAVRFEPGEEKSVELIDIGGNRRIFGFNALVDRQADNESKKIALHRAKERGFHGAKSDDNYVKTIKE
B1: binds.
